B1: Dynamin-Related Protein 1 (Drp1), endogenous in LPS-primed primary microglia (natural protein, UniProt Q8K1M6 1-736, looked up)
chain: MEALIPVINKLQDVFNTVGADIIQLPQIVVVGTQSSGKSSVLESLVGRDLLPRGTGVVTRRPLILQLVHVSPEDKRKTTGEENGVEAEEWGKFLHTKNKLYTDFDEIRQEIENETERISGNNKGVSPEPIHLKVFSPNVVNLTLVDLPGMTKVPVGDQPKDIELQIRELILRFISNPNSIILAVTAANTDMATSEALKISREVDPDGRRTLAVITKLDLMDAGTDAMDVLMGRVIPVKLGIIGVVNRSQLDINNKKSVTDSIRDEYAFLQKKYPSLANRNGTKYLARTLNRLLMHHIRDCLPELKTRINVLAAQYQSLLNSYGEPVDDKSATLLQLITKFATEYCNTIEGTAKYIETSELCGGARICYIFHETFGRTLESVDPLGGLNTIDILTAIRNATGPRPALFVPEVSFELLVKRQIKRLEEPSLRCVELVHEEMQRIIQHCSNYSTQELLRFPKLHDAIVEVVTCLLRKRLPVTNEMVHNLVAIELAYINTKHPDFADACGLMNNNIEEQRRNRLARELPSAGSRDKSSKVPSALAPASQEPPPAASAEADGKLIQDNRRETKNVPSAGGGIGDGGQEPTTGNWRGMLKTSKAEELLAEEKSKPIPIMPASPQKGHAVNLLDVPVPVARKLSAREQRDCEVIERLIKSYFLIVRKNIQDSVPKAVMHFLVNHVKDTLQSELVGQLYKSSLLDDLLTESEDMAQRRKEAADMLKALQGASQIIAEIRETHLW
notes: Dynamin-Related Protein 1 (Drp1), endogenous in primary microglia; Precipitated with an anti-Drp1 antibody; seen as tetramer on a native gel; Mouse is only surmised for the primary microglia; see the supplementary methods; source: endogenous, LPS-primed primary microglia lysate
B2: Dynamin-Related Protein 1 (Drp1), endogenous in mouse hippocampus (natural protein, UniProt Q8K1M6 1-736, looked up)
chain: B1 chain
notes: Dynamin-Related Protein 1 (Drp1), mouse, endogenous in the hippocampus of 5xFAD mice; Tetramer seen on a native gel; source: endogenous, hippocampus of 5xFAD mice

Tests used:
[1] = target: the molecule itself; experiment: native gel or EMSA; western blot of native gel of Drp1 tetramer in LPS-primed primary microglia, without and with 4 h of Aβ dimers
[2] = target: the molecule itself; experiment: native gel or EMSA; western blot of native gel of DRP1 tetramer in hippocampus of wt and 5xFAD mice (also with siTXNIP)

Protein	stoichiometry N [1]	stoichiometry N [2]
B1	4	
B2		4

From PMC8980056, “RAGE-TXNIP axis drives inflammation in Alzheimer’s by targeting Aβ to mitochondria in microglia” (Cell Death & Disease, 2022)
